Legend:
[1] = system: unactive MKK7β1 (UBI)
[2] = system: T1, His-tagged MKK7γ1
T1 sequence: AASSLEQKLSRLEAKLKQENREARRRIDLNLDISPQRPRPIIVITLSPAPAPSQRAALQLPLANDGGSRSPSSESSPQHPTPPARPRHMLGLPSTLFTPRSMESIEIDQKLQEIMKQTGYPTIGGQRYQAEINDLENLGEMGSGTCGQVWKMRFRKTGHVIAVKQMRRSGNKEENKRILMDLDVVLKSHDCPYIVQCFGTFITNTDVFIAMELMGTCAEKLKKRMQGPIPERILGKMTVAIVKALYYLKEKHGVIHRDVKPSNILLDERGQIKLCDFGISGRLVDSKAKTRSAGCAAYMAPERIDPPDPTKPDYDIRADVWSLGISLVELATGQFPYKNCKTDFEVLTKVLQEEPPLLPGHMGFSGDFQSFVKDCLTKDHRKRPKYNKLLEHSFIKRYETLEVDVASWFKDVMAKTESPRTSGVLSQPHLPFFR

[3] = system: unactive JNK1 (Upstate, Inc.)

Active MEKK1 (Upstate, Inc.)
phosphorylation in a two-step cascade kinase assay (γ-32P-ATP, SDS/PAGE, autoradiography) [1]: The His-tagged MKK7γ1 protein and the MKK7β1 protein was phosphorylated by MEKK1
phosphorylation in a two-step cascade kinase assay (γ-32P-ATP, SDS/PAGE, autoradiography) [2]: The His-tagged MKK7γ1 protein and the MKK7β1 protein was phosphorylated by MEKK1

unactive MKK7β1 (UBI)
phosphorylation in a two-step cascade kinase assay (γ-32P-ATP, SDS/PAGE, autoradiography) [3]: in turn was able to phosphorylate JNK1

Source: patent US20040121386
